Source: US20130323281A1

Target: human TLR5 on HEK-Blue-hTLR5 cells (human) (UniProt O60602)
Assay: cell-based or functional assay

Chain of UniProt O60602 (O60602 21-858): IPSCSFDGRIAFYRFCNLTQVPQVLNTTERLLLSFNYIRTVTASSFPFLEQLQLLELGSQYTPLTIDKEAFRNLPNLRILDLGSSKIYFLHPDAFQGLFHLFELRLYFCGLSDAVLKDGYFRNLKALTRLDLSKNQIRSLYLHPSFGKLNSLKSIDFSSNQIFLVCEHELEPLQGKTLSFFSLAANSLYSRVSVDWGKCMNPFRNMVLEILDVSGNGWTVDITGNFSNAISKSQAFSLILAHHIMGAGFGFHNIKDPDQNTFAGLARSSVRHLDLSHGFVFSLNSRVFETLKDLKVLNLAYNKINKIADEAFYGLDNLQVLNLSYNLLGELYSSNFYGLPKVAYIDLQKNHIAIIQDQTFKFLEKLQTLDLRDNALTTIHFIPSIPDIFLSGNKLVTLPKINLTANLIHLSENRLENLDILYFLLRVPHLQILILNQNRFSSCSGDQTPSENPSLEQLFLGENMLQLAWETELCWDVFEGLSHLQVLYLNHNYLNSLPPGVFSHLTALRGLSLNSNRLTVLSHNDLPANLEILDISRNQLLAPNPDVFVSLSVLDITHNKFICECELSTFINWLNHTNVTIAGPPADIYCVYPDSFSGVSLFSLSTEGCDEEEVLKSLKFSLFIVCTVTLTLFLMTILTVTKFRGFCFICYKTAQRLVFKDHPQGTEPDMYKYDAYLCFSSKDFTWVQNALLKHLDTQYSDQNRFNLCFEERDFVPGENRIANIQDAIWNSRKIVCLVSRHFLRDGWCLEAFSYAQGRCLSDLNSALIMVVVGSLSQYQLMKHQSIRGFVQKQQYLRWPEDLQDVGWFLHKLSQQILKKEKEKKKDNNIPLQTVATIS

flagellin (G239HPG, M310I, M466I) conjugated to Hepatitis B core (HBc) VLP by azide-alkyne click reaction
flagellin bioactivity (SEAP reporter, HEK-Blue-hTLR5 cells), fold against free flagellin: 10 fold

flagellin (fliC gene product) from Salmonella typhimurium SL1344, wild-type, produced by cell-free protein synthesis (from UniProt P06179 2-495) (ligand)
EC50 in flagellin bioactivity assay (SEAP reporter, HEK-Blue-hTLR5 cells): 2.4 pM
bioactivity assay (SEAP reporter, HEK-Blue-hTLR5 cells), given as 'affinity': 6 pM

flagellin Mutation III (M1HPG, Ala2Ile, M310I, M466I) conjugated to Hepatitis B core (HBc) VLP
bioactivity assay (SEAP reporter, HEK-Blue-hTLR5 cells), fold against free flagellin: 5 fold
